The subject of data set [1] is HeLa Kyoto. As to the kind of experiment: melting temperature (median over replicates), in situ; higher = more thermally stable.
Data set [2] concerns HeLa Kyoto. Briefly: solubility in G1/S (NP-40 vs SDS abundance) (log2 ratio); higher = more soluble. Particulars: cell cycle stage: G1/S.
Data set [3] has as its system HeLa Kyoto. As to the kind of experiment: solubility change mitosis vs G1/S (difference of NP-40 vs SDS log2 ratios) (log2 ratio difference); higher = more soluble in mitosis.
The test system of data set [4] is HeLa Kyoto. Briefly: thermal stability score vs G1/S (z-score of summed log2 fold changes over temperatures); higher = more thermally stable than in G1/S.
Setting [5] is: cell cycle stage: early G1 (4.5 h after nocodazole release).

Eight substances from the supplement of paper PMC5998384 can be followed below.
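Throughout, for melting temperature (median over replicates), in situ: HeLa Kyoto cells synchronized by double thymidine or nocodazole block, proteins quantified by TMT10plex mass spectrometry, three independent biological replicates.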
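Throughout, for solubility change mitosis vs G1/S (difference of NP-40 vs SDS log2 ratios): synchronized HeLa Kyoto cells (double thymidine block for G1/S, nocodazole release for mitosis), protein amounts in NP-40 versus SDS lysates quantified by mass spectrometry, three biological replicates.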
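Throughout, for solubility in G1/S (NP-40 vs SDS abundance): HeLa Kyoto cells arrested at G1/S by double thymidine block, proteins quantified by TMT10plex mass spectrometry in mild NP-40 versus SDS extracts, three biological replicates.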
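Throughout, for thermal stability score vs G1/S (z-score of summed log2 fold changes over temperatures): synchronized HeLa Kyoto cells, proteins quantified by TMT10plex mass spectrometry, three biological replicates, mitosis taken 0.5 h after nocodazole release, G1/S directly after double thymidine block.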

Consider “MWRRKHPRTSGGTRGVLSGNRGVEYGSGRGHLGTFEGRWRKLPKMPEAVGTDPSTSRKMAELEEVTLDGKPLQALRVTDLKAALEQRGLAKSGQKSALVKRLKGALMLENLQKHSTPHAAFQPNSQIGEEMSQNSFIKQYLEKQQELLRQRLEREAREAAELEEASAESEDEMIHPEGVASLLPPDFQSSLERPELELSRHSPRKSSSISEEKGDSDDEKPRKGERRSSRVRQARAAKLSEGSQPAEEEEDQETPSRNLRVRADRNLKTEEEEEEEEEEEEDDEEEEGDDEGQKSREAPILKEFKEEGEEIPRVKPEEMMDERPKTRSQEQEVLERGGRFTRSQEEARKSHLARQQQEKEMKTTSPLEEEEREIKSSQGLKEKSKSPSPPRLTEDRKKASLVALPEQTASEEETPPPLLTKEASSPPPHPQLHSEEEIEPMEGPAPAVLIQLSPPNTDADTRELLVSQHTVQLVGGLSPLSSPSDTKAESPAEKVPEESVLPLVQKSTLADYSAQKDLEPESDRSAQPLPLKIEELALAKGITEECLKQPSLEQKEGRRASHTLLPSHRLKQSADSSSSRSSSSSSSSSRSRSRSPDSSGSRSHSPLRSKQRDVAQARTHANPRGRPKMGSRSTSESRSRSRSRSRSASSNSRKSLSPGVSRDSSTSYTETKDPSSGQEVATPPVPQLQVCEPKERTSTSSSSVQARRLSQPESAEKHVTQRLQPERGSPKKCEAEEAEPPAATQPQTSETQTSHLPESERIHHTVEEKEEVTMDTSENRPENDVPEPPMPIADQVSNDDRPEGSVEDEEKKESSLPKSFKRKISVVSATKGVPAGNSDTEGGQPGRKRRWGASTATTQKKPSISITTESLKSLIPDIKPLAGQEAVVDLHADDSRISEDETERNGDDGTHDKGLKICRTVTQVVPAEGQENGQREEEEEEKEPEAEPPVPPQVSVEVALPPPAEHEVKKVTLGDTLTRRSISQQKSGVSITIDDPVRTAQVPSPPRGKISNIVHISNLVRPFTLGQLKELLGRTGTLVEEAFWIDKIKSHCFVTYSTVEEAVATRTALHGVKWPQSNPKFLCADYAEQDELDYHRGLLVDRPSETKTEEQGIPRPLHPPPPPPVQPPQHPRAEQREQERAVREQWAEREREMERRERTRSEREWDRDKVREGPRSRSRSRDRRRKERAKSKEKKSEKKEKAQEEPPAKLLDDLFRKTKAAPCIYWLPLTDSQIVQKEAERAERAKEREKRRKEQEEEEQKEREKEAERERNRQLEREKRREHSRERDRERERERERDRGDRDRDRERDRERGRERDRRDTKRHSRSRSRSTPVRDRGGRR [ACIN1]”, for which the melting temperature in data set [1] (cell cycle stage: G1/S) is 49.6 °C; in data set [1] (cell cycle stage: mitosis) it was 50.8 °C. The “solubility in G1/S (log2)” value in data set [2] is -1.35. Also, in data set [3], the “solubility change mitosis (log2)” value is 0.887. Besides, the thermal stability score is -3.76 in data set [4] (setting [5]) and -1.15 in data set [4] (cell cycle stage: mitosis).
For “MWTLVSWVALTAGLVAGTRCPDGQFCPVACCLDPGGASYSCCRPLLDKWPTTLSRHLGGPCQVDAHCSAGHSCIFTVSGTSSCCPFPEAVACGDGHHCCPRGFHCSADGRSCFQRSGNNSVGAIQCPDSQFECPDFSTCCVMVDGSWGCCPMPQASCCEDRVHCCPHGAFCDLVHTRCITPTGTHPLAKKLPAQRTNRAVALSSSVMCPDARSRCPDGSTCCELPSGKYGCCPMPNATCCSDHLHCCPQDTVCDLIQSKCLSKENATTDLLTKLPAHTVGDVKCDMEVSCPDGYTCCRLQSGAWGCCPFTQAVCCEDHIHCCPAGFTCDTQKGTCEQGPHQVPWMEKAPAHLSLPDPQALKRDVPCDNVSSCPSSDTCCQLTSGEWGCCPIPEAVCCSDHQHCCPQGYTCVAEGQCQRGSEIVAGLEKMPARRASLSHPRDIGCDQHTSCPVGQTCCPSLGGSWACCQLPHAVCCEDRQHCCPAGYTCNVKARSCEKEVVSAQPATFLARSPHVGVKDVECGEGHFCHDNQTCCRDNRQGWACCPYRQGVCCADRRHCCPAGFRCAARGTKCLRREAPRWDAPLRDPALRQLL [GRN]”, the results for the melting temperature in data set [1] (cell cycle stage: G1/S) and in data set [1] (cell cycle stage: mitosis) were 54.9 °C and 60.5 °C, respectively. The “solubility in G1/S (log2)” value in data set [2] amounted to 0.135. For the same substance, the “solubility change mitosis (log2)” value in data set [3] was -0.134. Further, the thermal stability score in data set [4] (setting [5]) is -2.57; in data set [4] (cell cycle stage: mitosis), -3.69.
As for “MYATDSRGHSPAFLQPQNGNSRHPSGYVPGKVVPLRPPPPPKSQASAKFTSIRREDRATFAFSPEEQQAQRESQKQKRHKNTFICFAITSFSFFIALAIILGISSKYAPDENCPDQNPRLRNWDPGQDSAKQVVIKEGDMLRLTSDATVHSIVIQDGGLLVFGDNKDGSRNITLRTHYILIQDGGALHIGAEKCRYKSKATITLYGKSDEGESMPTFGKKFIGVEAGGTLELHGARKASWTLLARTLNSSGLPFGSYTFEKDFSRGLNVRVIDQDTAKILESERFDTHEYRNESRRLQEFLRFQDPGRIVAIAVGDSAAKSLLQGTIQMIQERLGSELIQGLGYRQAWALVGVIDGGSTSCNESVRNYENHSSGGKALAQREFYTVDGQKFSVTAYSEWIEGVSLSGFRVEVVDGVKLNLLDDVSSWKPGDQIVVASTDYSMYQAEEFTLLPCSECSHFQVKVKETPQFLHMGEIIDGVDMRAEVGILTRNIVIQGEVEDSCYAENQCQFFDYDTFGGHIMIMKNFTSVHLSYVELKHMGQQQMGRYPVHFHLCGDVDYKGGYRHATFVDGLSIHHSFSRCITVHGTNGLLIKDTIGFDTLGHCFFLEDGIEQRNTLFHNLGLLTKPGTLLPTDRNNSMCTTMRDKVFGNYIPVPATDCMAVSTFWIAHPNNNLINNAAAGSQDAGIWYLFHKEPTGESSGLQLLAKPELTPLGIFYNNRVHSNFKAGLFIDKGVKTTNSSAADPREYLCLDNSARFRPHQDANPEKPRVAALIDRLIAFKNNDNGAWVRGGDIIVQNSAFADNGIGLTFASDGSFPSDEGSSQEVSESLFVGESRNYGFQGGQNKYVGTGGIDQKPRTLPRNRTFPIRGFQIYDGPIHLTRSTFKKYVPTPDRYSSAIGFLMKNSWQITPRNNISLVKFGPHVSLNVFFGKPGPWFEDCEMDGDKNSIFHDIDGSVTGYKDAYVGRMDNYLIRHPSCVNVSKWNAVICSGTYAQVYVQTWSTQNLSMTITRDEYPSNPMVLRGINQKAAFPQYQPVVMLEKGYTIHWNGPAPRTTFLYLVNFNKNDWIRVGLCYPSNTSFQVTFGYLQRQNGSLSKIEEYEPVHSLEELQRKQSERKFYFDSSTGLLFLYLKAKSHRHGHSYCSSQGCERVKIQAATDSKDISNCMAKAYPQYYRKPSVVKRMPAMLTGLCQGCGTRQVVFTSDPHKSYLPVQFQSPDKAETQRGDPSVISVNGTDFTFRSAGVLLLVVDPCSVPFRLTEKTVFPLADVSRIEEYLKTGIPPRSIVLLSTRGEIKQLNISHLLVPLGLAKPAHLYDKGSTIFLGFSGNFKPSWTKLFTSPAGQGLGVLEQFIPLQLDEYGCPRATTVRRRDLELLKQASKAH [TMEM2]”, the melting temperature in data set [1] (cell cycle stage: G1/S) amounted to 55.3 °C; in data set [1] (cell cycle stage: mitosis), 55.5 °C. Further, the “solubility in G1/S (log2)” value in data set [2] was determined as 0.114. For the same substance, in data set [3], the “solubility change mitosis (log2)” value is -0.018. Moreover, the values for the thermal stability score in data set [4] (setting [5]) and in data set [4] (cell cycle stage: mitosis) were -1.5 and -0.419, respectively.
Take MYCBP2: the values for the melting temperature in data set [1] (cell cycle stage: G1/S) and in data set [1] (cell cycle stage: mitosis) were 51.4 °C and 50.8 °C, respectively. Moreover, the “solubility in G1/S (log2)” value in data set [2] is -0.39. Further, the “solubility change mitosis (log2)” value in data set [3] worked out at 0.0594. Besides, the thermal stability score in data set [4] (setting [5]) is -0.686; in data set [4] (cell cycle stage: mitosis), -0.306.
As to “MYGSARSVGKVEPSSQSPGRSPRLPRSPRLGHRRTNSTGGSSGSSVGGGSGKTLSMENIQSLNAAYATSGPMYLSDHENVGSETPKSTMTLGRSGGRLPYGVRMTAMGSSPNIASSGVASDTIAFGEHHLPPVSMASTVPHSLRQARDNTIMDLQTQLKEVLRENDLLRKDVEVKESKLSSSMNSIKTFWSPELKKERALRKDEASKITIWKEQYRVVQEENQHMQMTIQALQDELRIQRDLNQLFQQDSSSRTGEPCVAELTEENFQRLHAEHERQAKELFLLRKTLEEMELRIETQKQTLNARDESIKKLLEMLQSKGLSAKATEEDHERTRRLAEAEMHVHHLESLLEQKEKENSMLREEMHRRFENAPDSAKTKALQTVIEMKDSKISSMERGLRDLEEEIQMLKSNGALSTEEREEEMKQMEVYRSHSKFMKNKVEQLKEELSSKEAQWEELKKKAAGLQAEIGQVKQELSRKDTELLALQTKLETLTNQFSDSKQHIEVLKESLTAKEQRAAILQTEVDALRLRLEEKETMLNKKTKQIQDMAEEKGTQAGEIHDLKDMLDVKERKVNVLQKKIENLQEQLRDKEKQMSSLKERVKSLQADTTNTDTALTTLEEALAEKERTIERLKEQRDRDEREKQEEIDNYKKDLKDLKEKVSLLQGDLSEKEASLLDLKEHASSLASSGLKKDSRLKTLEIALEQKKEECLKMESQLKKAHEAALEARASPEMSDRIQHLEREITRYKDESSKAQAEVDRLLEILKEVENEKNDKDKKIAELERQVKDQNKKVANLKHKEQVEKKKSAQMLEEARRREDNLNDSSQQLQDSLRKKDDRIEELEEALRESVQITAEREMVLAQEESARTNAEKQVEELLMAMEKVKQELESMKAKLSSTQQSLAEKETHLTNLRAERRKHLEEVLEMKQEALLAAISEKDANIALLELSSSKKKTQEEVAALKREKDRLVQQLKQQTQNRMKLMADNYEDDHFKSSHSNQTNHKPSPDQIIQPLLELDQNRSKLKLYIGHLTTLCHDRDPLILRGLTPPASYNLDDDQAAWENELQKMTRGQLQDELEKGERDNAELQEFANAILQQIADHCPDILEQVVNALEESS [ERC1]”, the melting temperature was found to be 48.4 °C in data set [1] (cell cycle stage: G1/S) and 50.1 °C in data set [1] (cell cycle stage: mitosis). Further, the “solubility in G1/S (log2)” value in data set [2] is 0.626. The “solubility change mitosis (log2)” value in data set [3] is 0.00205. The thermal stability score in data set [4] (setting [5]) was found to be 1.35; in data set [4] (cell cycle stage: mitosis), 1.65.
Take “MYLQVETRTSSRLHLKRAPGIRSWSLLVGILSIGLAAAYYSGDSLGWKLFYVTGCLFVAVQNLEDWEEAIFDKSTGKVVLKTFSLYKKLLTLFRAGHDQVVVLLHDVRDVSVEEEKVRYFGKGYMVVLRLATGFSHPLTQSAVMGHRSDVEAIAKLITSFLELHCLESPTELSQSSDSEAGDPASQS [C17ORF62]”: the figures for the melting temperature in data set [1] (cell cycle stage: G1/S) and in data set [1] (cell cycle stage: mitosis) were 55 °C and 55.1 °C, respectively. The “solubility in G1/S (log2)” value in data set [2] was -0.124. For the same substance, in data set [3], the “solubility change mitosis (log2)” value is -0.128. The thermal stability score in data set [4] (setting [5]) is -1.46; in data set [4] (cell cycle stage: mitosis), -0.834.
As for MYO5A, the results for the melting temperature in data set [1] (cell cycle stage: G1/S) and in data set [1] (cell cycle stage: mitosis) were 51.1 °C and 49.6 °C, respectively. Moreover, the “solubility in G1/S (log2)” value in data set [2] was -0.679. In addition, the “solubility change mitosis (log2)” value in data set [3] turned out to be 0.167. For the same substance, the values for the thermal stability score in data set [4] (setting [5]) and in data set [4] (cell cycle stage: mitosis) were 0.0646 and -0.152, respectively.
Regarding “MYYKFSGFTQKLAGAWASEAYSPQGLKPVVSTEAPPIIFATPTKLTSDSTVYDYAGKNKVPELQKFFQKADGVPVYLKRGLPDQMLYRTTMALTVGGTIYCLIALYMASQPKNK [COX7A2L]”, the melting temperature in data set [1] (cell cycle stage: G1/S) was 55.7 °C; in data set [1] (cell cycle stage: mitosis), 52.3 °C. In data set [2], the “solubility in G1/S (log2)” value is -0.0362. Also, the “solubility change mitosis (log2)” value in data set [3] is 0.107. Besides, the figures for the thermal stability score in data set [4] (setting [5]) and in data set [4] (cell cycle stage: mitosis) were -2.74 and -1.52, respectively.
